Data reported in patent US20110301120A1, “USE OF A CHITOSAN POLYMER FOR HEPARIN NEUTRALIZATION” (UNIWERSYTET JAGIELLONSKI, priority 2009, published 2011).

Legend:
[1] = fast injection, dogs; cited from earlier work
[2] = Interaction of heparin with cationically-modified chitosan at pH 7.4 (Azure A method); format: binding
Method: The concentration of in solution was determined spectrophotometrically using Azure A. 0.9 ml of proper buffer was added to 0.1 ml of heparin solution, followed by addition of 1.0 ml of Azure A solution at 8.0·10^−5 M and the absorption spectrum of the obtained solution was measured. The concentration of heparin was determined on the basis of the intensity of absorption band at 630 nm, which corresponds to monomeric molecules of Azure A. The concentration of free heparin after addition of chitosan was determined by mixing at defined proportions of chitosan solutions in acetic acid. After 10 minutes of energetic shaking the mixtures obtained were centrifuged at 3000 rpm in order to separate the insoluble complex. The concentration of free heparin was determined in the supernatant.
The interaction of modified polymers with heparin in the aqueous solution at pH 7.4 was studied (FIG. 2). By measuring heparin concentration with Azure A method it was shown that cationically-modified chitosan effectively complexes free heparin in solution at pH 7.4.
The efficiency of heparin complexation by both polymers obtained was compared with the efficiency of protamine, a heparin-reversal agent commonly used in medicine (Table 1).

[3] = if not neutralized or removed from the bloodstream; cited from earlier work
[4] = Dynamic light scattering: size of polymer objects and of their complexes with heparin; format: physicochemical; details: PBS
Method: The UV spectra were recorded using a diode-array HP 8452A spectrophotometer in quartz cuvettes with 1 cm optical path. The microscopic images were obtained using Nikon TE-2000 fluorescence microscope. The size of aggregates in suspensions was determined using a Zetasizer Nano ZS instrument from Malvern Instruments Ltd.
Using dynamic light scattering technique the size of objects formed by protamine and ChGl1 in the aqueous solution at pH 7.4 was measured (FIG. 3). The solutions of polymers were prepared in the PBS buffer. The heparin-protamine and heparin-ChGl complexes were obtained by mixing the respective solutions at the volume ratio corresponding to the minimum amount of the polycation needed to completely bind heparin in the solution.
For such mixtures the size and polydispersity of particles were measured.

[5] = minimum amount of polycation needed to completely bind heparin

protamine
hemodynamic effect [1]: severe hypotension
Mass required to bind 1 mg of heparin in PBS buffer at pH 7.4 [2]: 1.2661 mg
patients with adverse effects [3]: about 10%
size (diameter) of objects formed by the polymer ([4]; pH 7.4, without heparin): about 4 nm
diameter of aggregates with heparin [4, 5]: ≤ 10 μm
polydispersity of complexes with heparin [4, 5]: very polydisperse
